Assay results published in paper PMC10397247.

Assays:
Assay in all cases: two-hybrid library CCNG1;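 also: natural log of median RNA to DNA barcode read ratio; higher means stronger binding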
4H3041-bA = biological target: T1, 4H3041-bA
T1 chain: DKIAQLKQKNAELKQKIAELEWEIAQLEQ

4H3364-bA = biological target: T2, 4H3364-bA
T2 chain: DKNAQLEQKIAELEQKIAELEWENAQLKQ

4H2233-bA = biological target: T3, 4H2233-bA
T3 chain: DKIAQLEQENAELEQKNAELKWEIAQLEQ

4H349-bA = biological target: T4, 4H349-bA
T4 chain: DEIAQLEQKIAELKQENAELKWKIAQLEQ

4H2585-bA = biological target: T5, 4H2585-bA
T5 chain: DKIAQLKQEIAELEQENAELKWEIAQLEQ

4H235-bA = biological target: T6, 4H235-bA
T6 chain: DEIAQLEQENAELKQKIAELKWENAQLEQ

4H932-bA = biological target: T7, 4H932-bA
T7 chain: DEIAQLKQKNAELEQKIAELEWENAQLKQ

4H796-bA = biological target: T8, 4H796-bA
T8 chain: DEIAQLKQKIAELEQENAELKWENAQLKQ

4H949-bA = biological target: T9, 4H949-bA
T9 chain: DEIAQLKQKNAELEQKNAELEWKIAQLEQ

4H2444-bA = biological target: T10, 4H2444-bA
T10 chain: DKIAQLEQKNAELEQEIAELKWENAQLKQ

4H2859-bA = biological target: T11, 4H2859-bA
T11 chain: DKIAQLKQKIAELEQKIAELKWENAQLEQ

4H730-bA = biological target: T12, 4H730-bA
T12 chain: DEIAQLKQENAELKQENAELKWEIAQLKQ

4H3381-bA = biological target: T13, 4H3381-bA
T13 chain: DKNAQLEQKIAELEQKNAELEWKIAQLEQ

4H3297-bA = biological target: T14, 4H3297-bA
T14 chain: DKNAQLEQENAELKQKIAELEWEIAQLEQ

4H56-bA = biological target: T15, 4H56-bA
T15 chain: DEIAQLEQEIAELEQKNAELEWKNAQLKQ

4H2253-bA = biological target: T16, 4H2253-bA
T16 chain: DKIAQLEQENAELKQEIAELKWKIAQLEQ

4H2931-bA = biological target: T17, 4H2931-bA
T17 chain: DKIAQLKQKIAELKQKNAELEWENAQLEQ

4H2518-bA = biological target: T18, 4H2518-bA
T18 chain: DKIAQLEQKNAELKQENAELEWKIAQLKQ

4H264-bA = biological target: T19, 4H264-bA
T19 chain: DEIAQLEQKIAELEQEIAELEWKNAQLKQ

4H2760-bA = biological target: T20, 4H2760-bA
T20 chain: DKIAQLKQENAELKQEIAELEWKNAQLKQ

DKIAQLEQENAELEQKNAELKWEIAQLEQ [4H2233-bA] gave an interaction score (4H3041-bA) of 0.018, an interaction score (4H3364-bA) of -0.979 and an interaction score (4H2233-bA) of -0.789. It also gave an interaction score (4H349-bA) of -1.43, an interaction score (4H2585-bA) of -1.22 and an interaction score (4H235-bA) of -1.01. For the same binder, the interaction score (4H932-bA) was -1.01, the interaction score (4H796-bA) was -1.42 and the interaction score (4H949-bA) was -1. The interaction score (4H2444-bA) was -1.1, the interaction score (4H2859-bA) was -0.945 and the interaction score (4H730-bA) was -1.24. It also gave an interaction score (4H3381-bA) of -0.976, an interaction score (4H3297-bA) of -0.632 and an interaction score (4H56-bA) of -1.39. For the same binder, the interaction score (4H2253-bA) was -1.28, the interaction score (4H2931-bA) was -1.08 and the interaction score (4H2518-bA) was 2.31. For the same binder, the interaction score (4H264-bA) was -1.45 and the interaction score (4H2760-bA) was -0.641.
